Non-standard residues stand in square brackets, D forms with d. No end group written: not given here. Sta = CC(C)C[C@H](N)[C@@H](O)CC(=O)O
Columns and labels:
[1] = molecular target: T1, Hu-Asp (Homo sapiens, UniProt P56817); assay: Hu-Asp cleavage assay variation for substrates of SEQ ID NO:190 and 191 (Vmax, Km, pH, ionic strength, DMSO); type: biochemical; parameters: made in house; host or cells: High Five insect cells; conditions: 100 mM NaOAc/HOAc, pH 4.5 (stated for SEQ ID NO:190 and 191)
Procedure: In the substrates SEISY-EVEFRWKK (SEQ ID NO:190) and GLTNIKTEEISEISY-EVEFRWKK (SEQ ID NO:191), the 10 N-terminal amino acids of peptide SEISY-EVEFRWKK (SEQ ID NO:190) are identical to those of peptide SEISY-EVEFR (SEQ ID NO:152). The difference between the two peptide is the presence of a tryptophan and two lysines in the peptide of SEQ ID NO:190. […] Hu-Asp activity was tested towards SEISY-EVEFRWKK (SEQ ID NO:190) and GLTNIKTEEISEISY-EVEFRWKK (SEQ ID NO:191). […] The activity difference between the two peptides was particularly dramatic in the pH range 4.0-4.6. Specifically, it was 6.3-4.8 times higher for the peptide of SEQ ID NO:191. […] Both peptides were inhibited by increasing concentrations of DMSO. […] As expected, the N-terminus elongation increases activity. […] The development of the substrates of SEQ ID NO:190 and SEQ ID NO:191 is of great value in Hu-Asp inhibition studies and in studies concerning recombinant Hu-Asp refolding from E. coli inclusion bodies.
In a variation of the above assay for substrates of SEQ ID NO:190 or its N-terminally extended version depicted in SEQ ID NO:191), the substrates are incubated with the enzyme to a final reaction solution volume of 200 μl (although reaction mixtures of 50-100 μl also were used) composed of 5-50 μM peptide substrate, 1-10 nM enzyme, 0.1. M sodium acetate buffer at pH 4 to 5. […]

[2] = Solubility of peptide substrate; type: physicochemical; conditions: effect of the addition of two lysines
[3] = molecular target: T1, Hu-Asp; assay: Inhibition of HuAsp enzyme activity by statine-containing peptide; type: biochemical
[4] = tested on: HEK-293 cells; assay: ELISA of secreted Aβ40 and Aβ42 in medium of transfected HEK-293 cells; type: cell-based, human; conditions: medium of the transfected HEK-293 cells
Procedure: As one indicator of APP processing, levels of secreted Aβ from the medium of the transfected HEK-293 cells were measured. Measurements were by ELISA using antibody 6E10 (Syntek, St. Louis, Mo.) to capture Aβ and antibody 208 for Aβ40 and antibody 165 for Ap42. […] Using additional constructs in peptide activity assays, it was determined that if an Asn residue was substituted in place of a Ser to give SEVNY-↓-EVEFR (SEQ ID NO:170), this peptide has an activity that is only ⅕ than that of SEVSY-↓-EVEFR (SEQ ID NO:141; Table 4). This observation reaffirms that amino acid optimization at a certain position depends on the rest of the substrate sequence.

[5] = molecular target: T2, Hu-Asp2 (Homo sapiens, UniProt P56817); assay: Hu-Asp2 peptide substrate cleavage assay (HPLC quantitation of cleavage products); type: biochemical
T2 construct: made in house; host or cells: High Five insect cells

[6] = molecular target: T2, Hu-Asp2; assay: as above; type: biochemical
Procedure: The peptides listed in Table 2 were designed, synthesized, and tested for activity as substrates for Hu-Asp2. 200 μM of each test substrate was incubated with 210 nM Hu-Asp2 enzyme at pH 4.5 at 37° C. for 3 hours. Of course it should be understood that these are merely exemplary assay conditions, and those of skill in the art will be able to vary these conditions and yet still provide appropriate Hu-Asp2 activity. For example, it is envisioned that the assays may be conducted at a pH range of from between about 4.0 to about 7.0. The amount of enzyme added to a given reaction mixture may also be varied and those of skill in the art will be able to perform assays defining the optimal enzyme concentrations necessary for a given assay, as such 150 nm; 200 nm; 250 nm; 300 nm or more or less enzyme may be added. Substrate concentration in those also may be varied such that an assay may use 100, 150 μM, 200 μM, 250 μM, 300 μM, 350 μM or more or less of any given; substrate. It may be that one substrate produces an optimum activity at one concentration whereas another substrate is needed to be present at a different concentration to produce an optimum cleavage rate. However, such optimizations of enzyme assay conditions is well within the skill of those in the art and will not require undue experimentation.
In an exemplary assay to determine the cleavage of the substrates of the present invention, Asp2 was prepared from High Five™ insect cells. Generally, the assasy are run in solution at acidic pH (4.0 to 5.0), at 25-37° C. in the presence of nM or sub-nanomolar enzyme. After a suitable period of incubation the reaction is stopped at a desired time by addition of 4% trifluoracetic acid (TFA). Substrates and products are separated using reverse phase HPLC. The disappearance of the substrates and the appearance of the products are monitored by continuous measurement of the absorbance of the effluent at […]. Furthermore, if the peptide comprises a tryptophan residue, the monitoring may additionally or alternatively involve continuous monitoring of fluorescence of tryptophan fluorescence (excitation at 280 nm, emission at […]) of the effluent.
In a typical assay, 210 nM enzyme and 200 μM substrate were incubated in 0.2 M sodium acetate at pH 4.5 in 100 μl volume at 37° C. for 1 to 3 hours. The assay was stopped by the addition of 50 μl 4% TFA to lower the pH below the active range of the enzyme. Subsequently, 100 μl of this mixture was injected into a Hewlett Packard Model 1090 HPLC equipped with a Vydac column (4.6 mm i.d.×150 mm, 5 μm) pre-equilibrated with 95% A (0.15% TFA in water), 5% B (0.15% TFA in acetonitrile). The constituents were then eluted from the column with the following linear gradients: 0-15 min: 5-50% B; 15-17 min: 50-100% B; 17-20 min: 100-5% B; 20-22 min: 5% B). The cleavage products were then quantitated using an enhanced integrator. […]

T2 sequence (P56817 46-501): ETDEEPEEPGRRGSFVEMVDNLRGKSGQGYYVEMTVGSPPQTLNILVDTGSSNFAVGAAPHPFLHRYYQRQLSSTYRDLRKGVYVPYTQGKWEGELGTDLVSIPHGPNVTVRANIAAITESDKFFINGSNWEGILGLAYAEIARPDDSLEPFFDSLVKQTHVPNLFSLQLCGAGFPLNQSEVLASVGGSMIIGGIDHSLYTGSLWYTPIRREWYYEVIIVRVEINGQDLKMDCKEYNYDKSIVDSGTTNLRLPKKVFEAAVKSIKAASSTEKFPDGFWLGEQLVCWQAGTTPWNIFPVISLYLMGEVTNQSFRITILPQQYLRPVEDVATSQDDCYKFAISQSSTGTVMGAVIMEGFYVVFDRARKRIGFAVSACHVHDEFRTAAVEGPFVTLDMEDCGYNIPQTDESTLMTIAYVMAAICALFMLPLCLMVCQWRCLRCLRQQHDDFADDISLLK
T1 sequence (P56817 46-501): as above

SEISYEVEFRWKK [SEQ ID NO:190, SEISY-EVEFRWKK]
Km [1]: 86.7 µM
solubility [2]: increased solubility

SEVN[Sta]VAEFRGGC [statine-containing peptide]
inhibition of HuAsp enzyme activity [3]: shown to inhibit HuAsp enzyme activity

SEVSY-↓-EVEFR (SEVSYEVEFR)
production of secreted Aβ40 and Aβ42 [4]: easily measurable levels of Aβ
activity compared with Swedish mutant peptide (SEQ ID NO:19) ([5]; Table 4): 1.4 fold
Relative rate of Cleavage ([5]; Table 4, 200 nM enzyme, 200 μM substrate, pH 4.5, 37° C., 1 hr, SEQ ID NO:19 = 100): 141.8
Cleavage Activity ([5]; Table 5, 2 nM enzyme, 50 μM substrate, 25 mM Sodium acetate, pH 4.4, 37° C., 2 hr): 0.16 µmol/min/mg
Relative rate of Cleavage ([5]; Table 5, 2 nM enzyme, 50 μM substrate, 25 mM Sodium acetate, pH 4.4, 37° C., 2 hr, SEQ ID NO:141 = 100): 100
activity as substrate of Hu-Asp2 (in words) [6]: activity superior to the Swedish mutation

Reference: patent US7888291B2, “Substrates and assays for β-secretase” (Elan Pharmaceuticals, Inc., priority 2000, dated 2011)
